Earlier results in article PMC7527559.
Like-named read-outs stand apart in the source and are kept apart here.

Columns and labels:
[1] = target: RNA polymerase (Escherichia coli) (UniProt P0A7Z4)
[2] = target: RNA polymerase (Escherichia coli) (UniProt P0A7Z4); remark: listed apart in the source

Chain of GreA (P0A6W5 whole entry): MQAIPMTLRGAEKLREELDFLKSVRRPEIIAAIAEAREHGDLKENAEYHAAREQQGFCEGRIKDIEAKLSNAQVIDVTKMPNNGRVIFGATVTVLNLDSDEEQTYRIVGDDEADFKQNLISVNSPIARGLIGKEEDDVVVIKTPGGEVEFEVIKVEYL
Chain of DksA (P0ABS1 whole entry): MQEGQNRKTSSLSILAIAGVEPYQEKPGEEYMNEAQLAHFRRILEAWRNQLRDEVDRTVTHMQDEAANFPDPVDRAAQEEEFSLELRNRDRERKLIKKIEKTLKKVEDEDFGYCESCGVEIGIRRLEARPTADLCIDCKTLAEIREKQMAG

## GreA (from UniProt P0A6W5)
[1]
  Kd: 0.8 µM

## DksA (from UniProt P0ABS1)
[2]
  Kd: 0.1 µM
